# Results from paper PMC2665062 (The Journal of Biological Chemistry, 2009).
# Target: the molecule itself
# Assay: crystal structure
row,Binder,binding result
1,"Plasmodium falciparum nucleosome assembly protein PfNapL, wild type (natural protein, UniProt Q8I608 1-347, looked up) MAANEGNQPIPPEEEKEISSLLESIKIDDDKMTDLTEEQKETLKKLKLYQKEYYDYESKFEYELFLLRQKYHDLYGPIYDKRREALVGNGEAKIGTPNLPEFWLRALRNNNTVSHVIEDHDEEILVYLNDIRCDYIKKNKEKKEGFILSFYFATNPFFSNSVLTKTYHMKCVDCDNEPVLLHTEATVIDWYDNKNILKKNVVKKQHNKNSREVKTVQQTVNRDSFFHFFTSHKVPNSNVIKQLSKHEVAQLEMIIEGDYEVALTIKERIIPYAVDYYLGIIIESESNSIVSDVDSSYSSSENNSNYNSYESNNSAYNDENSNVDTNEYDDNEEEEEGAKSNEDPLTS",binds

# Target: histone H4 (calf thymus) (calf, UniProt P62803 1-103)
# Assay: ELISA
row,Binder,binding result
1,"Plasmodium falciparum nucleosome assembly protein PfNapL, wild type (natural protein, UniProt Q8I608 1-347, looked up) MAANEGNQPIPPEEEKEISSLLESIKIDDDKMTDLTEEQKETLKKLKLYQKEYYDYESKFEYELFLLRQKYHDLYGPIYDKRREALVGNGEAKIGTPNLPEFWLRALRNNNTVSHVIEDHDEEILVYLNDIRCDYIKKNKEKKEGFILSFYFATNPFFSNSVLTKTYHMKCVDCDNEPVLLHTEATVIDWYDNKNILKKNVVKKQHNKNSREVKTVQQTVNRDSFFHFFTSHKVPNSNVIKQLSKHEVAQLEMIIEGDYEVALTIKERIIPYAVDYYLGIIIESESNSIVSDVDSSYSSSENNSNYNSYESNNSAYNDENSNVDTNEYDDNEEEEEGAKSNEDPLTS",binds
2,PfNapL K266A (natural protein) MAANEGNQPIPPEEEKEISSLLESIKIDDDKMTDLTEEQKETLKKLKLYQKEYYDYESKFEYELFLLRQKYHDLYGPIYDKRREALVGNGEAKIGTPNLPEFWLRALRNNNTVSHVIEDHDEEILVYLNDIRCDYIKKNKEKKEGFILSFYFATNPFFSNSVLTKTYHMKCVDCDNEPVLLHTEATVIDWYDNKNILKKNVVKKQHNKNSREVKTVQQTVNRDSFFHFFTSHKVPNSNVIKQLSKHEVAQLEMIIEGDYEVALTIAERIIPYAVDYYLGIIIESESNSIVSDVDSSYSSSENNSNYNSYESNNSAYNDENSNVDTNEYDDNEEEEEGAKSNEDPLTS,binds
3,PfNapL H227A (natural protein) MAANEGNQPIPPEEEKEISSLLESIKIDDDKMTDLTEEQKETLKKLKLYQKEYYDYESKFEYELFLLRQKYHDLYGPIYDKRREALVGNGEAKIGTPNLPEFWLRALRNNNTVSHVIEDHDEEILVYLNDIRCDYIKKNKEKKEGFILSFYFATNPFFSNSVLTKTYHMKCVDCDNEPVLLHTEATVIDWYDNKNILKKNVVKKQHNKNSREVKTVQQTVNRDSFFAFFTSHKVPNSNVIKQLSKHEVAQLEMIIEGDYEVALTIKERIIPYAVDYYLGIIIESESNSIVSDVDSSYSSSENNSNYNSYESNNSAYNDENSNVDTNEYDDNEEEEEGAKSNEDPLTS,binds
4,PfNapL T230A (natural protein) MAANEGNQPIPPEEEKEISSLLESIKIDDDKMTDLTEEQKETLKKLKLYQKEYYDYESKFEYELFLLRQKYHDLYGPIYDKRREALVGNGEAKIGTPNLPEFWLRALRNNNTVSHVIEDHDEEILVYLNDIRCDYIKKNKEKKEGFILSFYFATNPFFSNSVLTKTYHMKCVDCDNEPVLLHTEATVIDWYDNKNILKKNVVKKQHNKNSREVKTVQQTVNRDSFFHFFASHKVPNSNVIKQLSKHEVAQLEMIIEGDYEVALTIKERIIPYAVDYYLGIIIESESNSIVSDVDSSYSSSENNSNYNSYESNNSAYNDENSNVDTNEYDDNEEEEEGAKSNEDPLTS,binds
5,PfNapL E260A (natural protein) MAANEGNQPIPPEEEKEISSLLESIKIDDDKMTDLTEEQKETLKKLKLYQKEYYDYESKFEYELFLLRQKYHDLYGPIYDKRREALVGNGEAKIGTPNLPEFWLRALRNNNTVSHVIEDHDEEILVYLNDIRCDYIKKNKEKKEGFILSFYFATNPFFSNSVLTKTYHMKCVDCDNEPVLLHTEATVIDWYDNKNILKKNVVKKQHNKNSREVKTVQQTVNRDSFFHFFTSHKVPNSNVIKQLSKHEVAQLEMIIEGDYAVALTIKERIIPYAVDYYLGIIIESESNSIVSDVDSSYSSSENNSNYNSYESNNSAYNDENSNVDTNEYDDNEEEEEGAKSNEDPLTS,binds
6,PfNapL D192A (natural protein) MAANEGNQPIPPEEEKEISSLLESIKIDDDKMTDLTEEQKETLKKLKLYQKEYYDYESKFEYELFLLRQKYHDLYGPIYDKRREALVGNGEAKIGTPNLPEFWLRALRNNNTVSHVIEDHDEEILVYLNDIRCDYIKKNKEKKEGFILSFYFATNPFFSNSVLTKTYHMKCVDCDNEPVLLHTEATVIDWYANKNILKKNVVKKQHNKNSREVKTVQQTVNRDSFFHFFTSHKVPNSNVIKQLSKHEVAQLEMIIEGDYEVALTIKERIIPYAVDYYLGIIIESESNSIVSDVDSSYSSSENNSNYNSYESNNSAYNDENSNVDTNEYDDNEEEEEGAKSNEDPLTS,binds
7,PfNapL Y259A (natural protein) MAANEGNQPIPPEEEKEISSLLESIKIDDDKMTDLTEEQKETLKKLKLYQKEYYDYESKFEYELFLLRQKYHDLYGPIYDKRREALVGNGEAKIGTPNLPEFWLRALRNNNTVSHVIEDHDEEILVYLNDIRCDYIKKNKEKKEGFILSFYFATNPFFSNSVLTKTYHMKCVDCDNEPVLLHTEATVIDWYDNKNILKKNVVKKQHNKNSREVKTVQQTVNRDSFFHFFTSHKVPNSNVIKQLSKHEVAQLEMIIEGDAEVALTIKERIIPYAVDYYLGIIIESESNSIVSDVDSSYSSSENNSNYNSYESNNSAYNDENSNVDTNEYDDNEEEEEGAKSNEDPLTS,binds
